Results published in patent US20240294570.

Columns and labels:
[1] = test system: T1, phosphopentapeptide 7, NBD-βA-LLpYLL
T1 sequence: XLLXLL

[2] = test system: T2, phosphopeptide 3, NBD-βA-LLLpY
T2 sequence: XLLLX

[3] = test system: T3, L-phosphopentapeptide 5, NBD-βA-LLLLpY
T3 sequence: XLLLLX

[4] = test system: T4, phosphopentapeptide 9, NBD-βA-llllpY
T4 sequence: LLLLY

Alkaline phosphatase (Biomatik, Cat. No. A1130)
conversion ratio of 7 to 8 after 5 h, 0.5 U/mL ALP [1]: After 5 h of incubation, the conversion ratio of 7 to 8 is 61.5%
dephosphorylation catalyzed by ALP [2]: 3 is able to turn into 4 upon dephosphorylation catalyzed by ALP
conversion of 5 to 6 after 1 hour, 0.1 U/mL ALP [3]: After 1 hour of incubation, 32.7% of 5 turns into 6
conversion of 5 to 6 after 2 hours, 0.1 U/mL ALP [3]: After 2 hours of incubation of 5 with 0.1 U/mL of ALP, 49.6% of 5 becomes 6
dephosphorylation ratio after 5 hours, 400 µM of 5, 0.5 U/mL ALP [3]: After 5 hours of incubation, 400 µM of 5 results in a dephosphorylation ratio of 93.8%
final dephosphorylation ratio, 5 (400 µM), 0.1 U/mL ALP [3]: the final dephosphorylation ratio is 69.1%
fraction of 5 hydrolyzed at 40 minutes, 0.1 U/mL ALP [3]: At the time point 40 minutes, about 24% of 5 is hydrolyzed by ALP
conversion ratio of 9 to 10 after 5 hours, 0.5 U/mL ALP [4]: After 5 hours of incubation, the conversion ratio of 9 to 10 is 93.3%
